Patent US20230056486
“And” between values parts separate entries of the source, which are not always exact repeats. Equal values may be shown once.

Target: T1, (GR)10 dipeptide repeat peptide
T1 chain: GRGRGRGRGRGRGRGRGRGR

B1: Proteinase K (protein)
chain: AAQTNAPWGLARISSTSPGTSTYYYDESAGQGSCVYVIDTGIEASHPEFEGRAQMVKTYYYSSRDGNGHGTHCAGTVGSRTYGVAKKTQLFGVKVLDDNGSGQYSTIIAGMDFVASDKNNRNCPKGVVASLSLGGGYSSSVNSAAARLQSSGVMVAVAAGNNNADARNYSPASEPSVCTVGASDRYDRRSSFSNYGSVLDIFGPGTSILSTWIGGSTRSISGTSMATPHVAGLAAYLMTLGKTTAASACRYIADTANKGDLSNIPFGTVNLLAYNNYQA
(GR)10 concentration left at 0 min (LC/MS; 50 µM start; TFA added before enzyme): 44.9 µM and 49.4 µM
(GR)10 concentration left at 2.5 min (LC/MS; 50 µM start): 55.8 µM and 55.4 µM
(GR)10 concentration left at 5 min (LC/MS; 50 µM start): 54.4 µM and 48.8 µM
(GR)10 concentration left at 10 min (LC/MS; 50 µM start): 50.3 µM and 44.1 µM

B2: clostripain (protein)
chain: NKNQKVTIMYYCDADNNLEGSLLNDIEEMKTGYKDSPNLNLIALVDRSPRYSSDEKVLGEDFSDTRLYKIEHNKANRLDGKNEFPEISTTSKYEANMGDPEVLKKFIDYCKSNYEADKYVLIMANHGGGAREKSNPRLNRAICWDDSNLDKNGEADCLYMGEISDHLTEKQSVDLLAFDACLMGTAEVAYQYRPGNGGFSADTLVASSPVVWGPGFKYDKIFDRIKAGGGTNNEDDLTLGGKEQNFDPATITNEQLGALFVEEQRDSTHANGRYDQHLSFYDLKKAESVKRAIDNLAVNLSNENKKSEIEKLRGSGIHTDLMHYFDEYSEGEWVEYPYFDVYDLCEKINKSENFSSKTKDLASNAMNKLNEMIVYSFGDPSNNFKEGKNGLSIFLPNGDKKYSTYYTSTKIPHWTMQSWYNSIDTVKYGLNPYGKLSWCKDGQDPEINKVGNWFELLDSWFDKTNDVTGGVNHYQW
(GR)10 concentration left at 0 min (LC/MS; 50 µM start; TFA added before enzyme): 39.7 µM and 37.9 µM
(GR)10 concentration left at 30 min (LC/MS; 50 µM start): BLQ
(GR)10 concentration left at 60 min (LC/MS; 50 µM start): BLQ
(GR)10 concentration left at 120 min (LC/MS; 50 µM start): BLQ
(GR)10 left in CSF; Clostripain + DTT-Immobilized-5 min reaction (LC/MS; 200 µM (GR)10 in human CSF) (normalized µM): 58
(GR)10 left in CSF; Clostripain + DTT-Immobilized-60 min reaction (LC/MS; 200 µM (GR)10 in human CSF) (normalized µM): -0
(GR)10 left in CSF; Clostripain-Immobilized-5 min reaction, no DTT (LC/MS; 200 µM (GR)10 in human CSF) (normalized µM): 395
(GR)10 left in CSF; Clostripain-Immobilized-60 min reaction, no DTT (LC/MS; 200 µM (GR)10 in human CSF) (normalized µM): -0
(GR)10 left; Clostripain + DTT-Immobilized-5 min reaction (LC/MS) (µM (normalized to GR concentration)): -0
(GR)10 left; Clostripain + DTT-immobilized-60 min reaction (LC/MS) (µM (normalized to GR concentration)): -0
(GR)10 left; Clostripain + DTT-in solution-5 min reaction (LC/MS) (µM (normalized to GR concentration)): 5.7
(GR)10 left; Clostripain + DTT-in solution-60 min reaction (LC/MS) (µM (normalized to GR concentration)): -0
(GR)10 left; Clostripain + DTT-resin wash from 5 min reaction (LC/MS) (µM (normalized to GR concentration)): -0
(GR)10 left; Clostripain + DTT-resin wash from 60 min reaction (LC/MS) (µM (normalized to GR concentration)): -0
(GR)10 left; Clostripain-Immobilized-5 min reaction, no DTT (LC/MS): 0 µM
(GR)10 left; Clostripain-immobilized-60 min reaction, no DTT (LC/MS): 0 µM
(GR)10 left; Clostripain-in solution-5 min reaction, no DTT (LC/MS): 12.4 µM
(GR)10 left; Clostripain-in solution-60 min reaction, no DTT (LC/MS): 0 µM
(GR)10 left; Clostripain-resin wash from 5 min reaction, no DTT (LC/MS): 0 µM
(GR)10 left; Clostripain-resin wash from 60 min reaction, no DTT (LC/MS): 0 µM
